In general, stoichiometry N refers to a count of units in the complex or per binding partner.

Data on two substances can be found in PMC2780661.

The target of assay [1] is ATP synthase from mitochondria of Zea mays (Z. mays (endogenous in mitochondria)). Nature of the assay: single particle electron microscopy.
For assay [2], the target named is Complex III2 from potato (potato).

As to “ATP synthase from mitochondria of Zea mays (complex)”, in assay [1], the stoichiometry N worked out at 2.
Complex I from potato showed a stoichiometry N in assay [2] of 2.
